± gives the standard error. Variants at the floor of the assay were thinned out.
B1: glmS ribozyme (parent)
chain: AUAAAAGCGCCAGAACUACAGAAAUGUAGUUGACGAGGAGGAGGUUUAUCGAAUUUUCGGCGGAUGCCUCCAAA

Variants of: B1
Test: self-cleavage kobs at 10000 uM GlcN6P; higher = faster cleavage; RNA array
Settings: with glucosamine-6-phosphate
Outline: (§1)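 kobs was derived by fitting per-tile medians to one- or two-exponential decays after normalising signals to baseline and to non-cleaving reference variants. Those signals came from barcoded ribozyme variants transcribed in situ by E. coli RNA polymerase on sequenced MiSeq chips, followed through a hybridised Cy3 probe at 37 °C and imaged over ~14 h. Glucosamine-6-phosphate (40 μM to 10 mM) in HEPES/KCl/Mg(OAc)2 buffer was flowed in. Weighted Michaelis–Menten fits across concentrations then gave kcat and KM.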

Row | Variant | self-cleavage kobs at 10000 uM GlcN6P
1 | G13U C50G C70U | 5.49e-05 ± 1.2e-05 s⁻¹
2 | A33C G37U | < 1e-05 s⁻¹
3 | G13C U49A G60U C61A | < 1e-05 s⁻¹
4 | C8A G29C U46A | < 1e-05 s⁻¹
5 | G13A G44U G62U C71G | < 1e-05 s⁻¹
6 | G35C A39C G41U U49G | < 1e-05 s⁻¹
7 | G7A A14G A39G C71U | 5.55e-05 ± 1.7e-05 s⁻¹
8 | G7U C34G G59C | < 1e-05 s⁻¹
9 | G29U G41U U45C C70U | 0.000108 ± 2.4e-05 s⁻¹
10 | G13C A33G G41U | < 1e-05 s⁻¹
11 | G7U U47A U57G | < 1e-05 s⁻¹
12 | A15U U30G A48U A53G | 0.000112 ± 3.6e-05 s⁻¹
13 | A14U G37C A64C | < 1e-05 s⁻¹
14 | A14C A23C | 0.0057 ± 0.0012 s⁻¹
15 | C16U G26U U31C | 5.34e-05 ± 1.7e-05 s⁻¹
16 | G9C G43C C67U | < 1e-05 s⁻¹
17 | A15G C67A C68A | 5.65e-05 ± 1.7e-05 s⁻¹
18 | A14G A15U G32A | 0.00264 ± 0.00069 s⁻¹
19 | C11G U30A U57G | < 1e-05 s⁻¹
20 | A14C G38U G63U C68A | 4.08e-05 ± 1.9e-05 s⁻¹
21 | A6G C34A A39G | < 1e-05 s⁻¹
22 | G29U G38C G44A U47C | < 1e-05 s⁻¹
23 | G9U G32U G37U | < 1e-05 s⁻¹

Row | Variant | self-cleavage kobs at 10000 uM GlcN6P
24 | C34U C58U | < 1e-05 s⁻¹
25 | A12C U31A A42G A52G | 0.000429 ± 9.6e-05 s⁻¹
26 | A6C G29A C34U G43U G44U | < 1e-05 s⁻¹
27 | G37C U46A G60U | < 1e-05 s⁻¹
28 | C16U G29U G40U C50U | < 1e-05 s⁻¹
29 | A14U A42G C61G | < 1e-05 s⁻¹
30 | U30G A48C | 5.11e-05 ± 1.6e-05 s⁻¹
31 | C8G G32U G43A C68G | < 1e-05 s⁻¹
32 | A15C A39G A52G | 0.000495 ± 8.8e-05 s⁻¹
33 | G9C C34A U55C | < 1e-05 s⁻¹
34 | C11U A42C U55C C70U | < 1e-05 s⁻¹
35 | A12U G13U G29C | 3.79e-05 ± 1.5e-05 s⁻¹
36 | G7C A14G A39C A48G A53U | < 1e-05 s⁻¹
37 | G9C U46G A53U U55G | < 1e-05 s⁻¹
38 | G7A C11G A14C A48G A64G | < 1e-05 s⁻¹
39 | A39G A52C | 2.99e-05 ± 1.2e-05 s⁻¹
40 | C11G U31C A36C | < 1e-05 s⁻¹
41 | G35A G37C U47C | < 1e-05 s⁻¹
42 | G29U C34A G59A U65C | < 1e-05 s⁻¹
43 | C16U G32A C58A U69A | 7.78e-05 ± 1.2e-05 s⁻¹
44 | C10G G13A G41C C50U C67A | < 1e-05 s⁻¹
45 | G29A G66U C68U | 3.63e-05 ± 1.6e-05 s⁻¹
46 | G7C C68A C71A | < 1e-05 s⁻¹

Row | Variant | self-cleavage kobs at 10000 uM GlcN6P
47 | G9U A14C A36C U46A | < 1e-05 s⁻¹
48 | C8G G9C G13U G37U A64G | < 1e-05 s⁻¹
49 | U30C U46C G59U | < 1e-05 s⁻¹
50 | U31A A33C | 4.61e-05 ± 1.8e-05 s⁻¹
51 | A39G C58G C67U | 3.44e-05 ± 1.2e-05 s⁻¹
52 | G13A C58U | 8.94e-05 ± 8.9e-06 s⁻¹
53 | A12C C61U G66U | < 1e-05 s⁻¹
54 | G44U U46A | 0.000117 ± 2.9e-05 s⁻¹
55 | C16G G38C G40C U45A A52G | < 1e-05 s⁻¹
56 | C11G A39U G44U A48C | < 1e-05 s⁻¹
57 | C11U G38C C50A A53G G60C C68U | < 1e-05 s⁻¹
58 | A14C G37A U45A U49A C50A C58U | < 1e-05 s⁻¹
59 | C67A C68U C70U | 6.71e-05 ± 1.9e-05 s⁻¹
60 | C8U C34A A53C C71A | < 1e-05 s⁻¹
61 | A6C A12C C58G | < 1e-05 s⁻¹
62 | A12C G13U C61U G62U | < 1e-05 s⁻¹
63 | G37U C58G G63U | < 1e-05 s⁻¹
64 | C16U G40U G66U | 4.28e-05 ± 1.2e-05 s⁻¹
65 | C16U U54A C70G | 0.000121 ± 2.5e-05 s⁻¹
66 | G13C U31C A39C | 2.61e-05 ± 1.3e-05 s⁻¹
67 | A33G A39U U49C C68G | < 1e-05 s⁻¹
68 | C16U G29U C67G | 0.000292 ± 8.5e-05 s⁻¹
69 | U45G U55C G60A G63U | < 1e-05 s⁻¹

Variants of: B1
Test: self-cleavage kobs at 2500 uM GlcN6P; higher = faster cleavage; RNA array
Settings: with glucosamine-6-phosphate
Outline: as §1

Row | Variant | self-cleavage kobs at 2500 uM GlcN6P
70 | G51A A53C G62U | < 1e-05 s⁻¹
71 | A48U U56A | 9.99e-05 ± 3.4e-05 s⁻¹
72 | U47G A52C G60C C71A | < 1e-05 s⁻¹
73 | G43U G44A C50U C61G | < 1e-05 s⁻¹
74 | G44C G51A U55C U56C | < 1e-05 s⁻¹
75 | U47A A53G C70A | 0.000177 ± 4e-05 s⁻¹
76 | U57A C58A C70G | 0.000143 ± 3.9e-05 s⁻¹
77 | G44A G66U C67G | 0.00142 ± 0.00035 s⁻¹
78 | G43U A48U G62A C67A | < 1e-05 s⁻¹
79 | G44U U46A | 0.000112 ± 3.8e-05 s⁻¹
80 | C67A C68U C70U | 2.78e-05 ± 1.3e-05 s⁻¹
81 | G43A U54A | 3.85e-05 ± 1.7e-05 s⁻¹
82 | U47A C50A G59U G66C | < 1e-05 s⁻¹
83 | U45G U57G C68A C70A | < 1e-05 s⁻¹
84 | U46G G59C C68U C70A | < 1e-05 s⁻¹

From the supplement of paper PMC7125110
